{
  "source": "patent US20240122981A1",
  "about": "(University of Pennsylvania, published 2024)",
  "key": {"[1]": {"biological_target": "T1, CC chemokine receptor 4 (CCR4) (human, UniProt P51679 1-360)", "T1 construct": "whole, on cells; No recombinant CCR4 was used; also called CD194", "T1 sequence (looked up)": "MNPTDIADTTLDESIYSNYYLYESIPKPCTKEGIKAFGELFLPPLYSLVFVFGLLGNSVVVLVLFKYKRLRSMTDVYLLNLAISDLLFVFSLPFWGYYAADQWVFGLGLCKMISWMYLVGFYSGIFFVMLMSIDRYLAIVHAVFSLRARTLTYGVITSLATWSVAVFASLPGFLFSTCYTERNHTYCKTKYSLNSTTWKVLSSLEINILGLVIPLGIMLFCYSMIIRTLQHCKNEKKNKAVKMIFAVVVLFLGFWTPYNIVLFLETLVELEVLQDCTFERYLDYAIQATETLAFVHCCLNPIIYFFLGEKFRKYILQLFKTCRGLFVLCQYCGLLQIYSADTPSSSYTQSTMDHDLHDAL", "experiment": "flow cytometry on HH cells, KW-0761 conjugated to Ax680", "experimental": "CCR4 was analyzed by FCM.\nDead cells were gated out by staining with violet amine-reactive viability dye, LIVE-DEAD violet (Invitrogen). Intracellular staining was performed using the Foxp3/Transcription Factor Staining Kit (Affymetrix) per the manufacturer's instructions. CCR4-CAR and CD19-CAR expression were detected by biotinylated antihuman Fab antibody and anti-mouse Fab antibody (Jackson ImmunoResearch), respectively. […] Data were collected either by a Fortessa LSRII or LSR II cytometer (BD Biosciences) and analyzed using FlowJo version 10 software (Tree Star)."}, "[2]": {"biological_target": "T1, CC chemokine receptor 4 (CCR4)", "experiment": "flow cytometry on HH cells transduced with the CAR; loss of staining by the parent mAb"}, "[3]": {"biological_target": "T1, CC chemokine receptor 4 (CCR4)", "experiment": "flow cytometry on HH cells transduced with the CAR; reduced staining by the parent mAb"}},
  "data": [
    {"binder": "anti-CCR4 monoclonal antibody clone KW-0761 (mogamulizumab) (antibody, V domains shown, also called anti-CCR4 clone KW monoclonal antibody) VH: EVQLVESGGDLVQPGRSLRLSCAASGFIFSNYGMSWVRQAPGKGLEWVATISSASTYSYYPDSVKGRFTISRDNAKNSLYLQMNSLRVEDTALYYCGRHSDGNFAFGYWGQGTLVTVSS VL: DVLMTQSPLSLPVTPGEPASISCRSSRNIVHINGDTYLEWYLQKPGQSPQLLIYKVSNRFSGVPDRFSGSGSGTDFTLKISRVEAEDVGVYYCFQGSLLPWTFGQGTKVEIK", "values": [
      {"measurement": "binding result", "setting": "[1]", "result": "binds"}
    ]},
    {"binder": "CCR4(h1567_L2H)-CAR (other, Chimeric antigen receptor on the surface of transduced HH cells or primary T cells; also called CCR4-CAR(h1567_L2H); not shown: second-generation CAR backbone (CD8 hinge and transmembrane, 4-1BB, CD3 zeta); the fu) DIVMTQSPDSLAVSLGERATINCKSSQSILYSSNQKNYLAWYQQKPGQSPKLLIYWASTRESGVPDRFSGSGSGTDFTLTISSLQAEDVAVYYCHQYLSSYTFGQGTKLEIKGGGGSGGGGSGGGGSGGGGSQVQLVQSGAEVKKPGASVKVSCKASGYTFASYYMHWMRQAPGQGLEWIGWINPGNVNTKYNEKFKGRATLTVDTSTNTAYMELSSLRSEDTAVYYCARSTYYRPLDYWGQGTLVTVSS", "values": [
      {"measurement": "binding result", "setting": "[2]", "result": "binds"}
    ]},
    {"binder": "CCR4(KW_L2H)-CAR (other, Chimeric antigen receptor on the surface of transduced HH cells or primary T cells) GSDVLMTQSPLSLPVTPGEPASISCRSSRNIVHINGDTYLEWYLQKPGQSPQLLIYKVSNRFSGVPDRFSGSGSGTDFTLKISRVEAEDVGVYYCFQGSLLPWTFGQGTKVEIKGGGGSGGGGSGGGGSGGGGSEVQLVESGGDLVQPGRSLRLSCAASGFIFSNYGMSWVRQAPGKGLEWVATISSASTYSYYPDSVKGRFTISRDNAKNSLYLQMNSLRVEDTALYYCGRHSDGNFAFGYWGQGTLVTVSSSGTTTPAPRPPTPAPTIASQPLSLRPEACRPAAGGAVHTRGLDFACDIYIWAPLAGTCGVLLLSLVITLYCKRGRKKLLYIFKQPFMRPVQTTQEEDGCSCRFPEEEEGGCELRVKFSRSADAPAYKQGQNQLYNELNLGRREEYDVLDKRRGRDPEMGGKPRRKNPQEGLYNELQKDKMAEAYSEIGMKGERRRGKGHDGLYQGLSTATKDTYDALHMQALPPR", "values": [
      {"measurement": "binding result", "setting": "[3]", "result": "binds"}
    ]}
  ]
}
